# Test results published in patent US8187838B2, “β-Galactoside-α2, 6-sialyltransferase, a gene encoding thereof, and a method for producing thereof” (Japan Tobacco Inc., priority 2006, dated 2012).
# Entries after “also recorded” stand apart in the source; their conditions may differ.
# B1: ISH224-N3C0: truncated protein, SEQ ID NO: 12: methionine plus amino acids 111-514 of SEQ ID NO: 2 (protein, listed as Photobacterium sp.)
# chain: MNVVAPSLEVYVDHASLPTLQQLMDIIKSEEENPTAQRYIAWGRIVPTDEQMKELNITSFALINNHTPADLVQEIVKQAQTKHRLNVKLSSNTAHSFDNLVPILKELNSFNNVTVTNIDLYDDGSAEYVNLYNWRDTLNKTDNLKIGKDYLEDVINGINEDTSNTGTSSVYNWQKLYPANYHFLRKDYLTLEPSLHELRDYIGDSLKQMQWDGFKKFNSKQQELFLSIVNFDKQKLQNEYNSSNLPNFVFTGTTVWAGNHEREYYAKQQINVINNAINESSPHYLGNSYDLFFKGHPGGGIINTLIMQNYPSMVDIPSKISFEVLMMTDMLPDAVAGIASSLYFTIPAEKIKFIVFTSTETITDRETALRSPLVQVMIKLGIVKEENVLFWADLPNCETGVCIAV
# Columns and labels:
# [1] = Sialyltransferase activity of samples after each purification step; format: biochemical; conditions: for Specific activity (U/mg) / Total activity (U): cacodylate pH 5, 5 minutes, 30° C.
# Description: (§1) Sialyltransferase activity was measured as described in J. Biochem., 120, 104-110 (1996) (which is hereby incorporated by reference in its entirety). More specifically, the enzymatic reaction was accomplished by using CMP-NeuAc (70 nmol, containing about 20,000 cpm CMP-NeuAc in which NeuAc was labeled with ^14C; NeuAc represents N-acetylneuraminic acid) as a glycosyl donor substrate, lactose (1.25 μmol) as a glycosyl acceptor substrate, NaCl added to give a concentration of 0.5 M, and the enzyme-containing reaction solution (30 μl) prepared as described above. The enzymatic reaction was carried out at 25° C. for about 10 to 180 minutes. After completion of the reaction, 1.97 ml of 5 mM phosphate buffer (pH 6.8) was added to the reaction solution, which was then applied to a Dowex 1×8 (PO4^3− form, 0.2×2 cm, BIO-RAD) column. The radioactivity was measured for the reaction product, i.e., sialyllactose contained in the eluate (0 to 2 ml) from this column to calculate the enzyme activity. One enzyme unit (1 U) is defined as the amount of enzyme required to transfer 1 micromole of sialic acid per minute.
# The enzyme activity was measured by the method reported in J. Biochem. 120, 104-110 (1996), in the same manner as described in Example 1 under conditions as indicated in the footnote of Table 3-1. For protein quantification, a Coomassie Protein Assay Reagent (PIERCE) was used according to the instruction manual attached thereto. One enzyme unit (1U) was defined as the amount of enzyme required to transfer 1 micromole of sialic acid per minute.
# Reaction time: 5 minutes Reaction temperature: 25° C.
# The enzyme activity was measured by the method reported in J. Biochem. 120, 104-110 (1996), in the same manner as described in Example 1 under conditions as indicated in the footnote of Table 3-2. For protein quantification, a Coomassie Protein Assay Reagent (PIERCE) was used according to the instruction manual attached thereto. One enzyme unit (1U) was defined as the amount of enzyme required to transfer 1 micromole of sialic acid per minute.
# (§2) Reaction Conditions Reaction composition:
# Reaction time: 5 minutes Reaction temperature: 30° C.
# [2] = Sialyltransferase activity in homogenate of E. coli carrying the JT-ISH-224 gene clones (14C-NeuAc transfer to lactose); format: biochemical; conditions: crude enzyme solution from E. coli TB1
# Description: as §1
# An induction experiment of protein expression was performed on the five clones obtained in (3) above (i.e., ISH224-N0C0/pTrc, ISH224-N1C0/pTrc, ISH224-N2C0/pTrc, ISH224-N3C0/pTrc and ISH224-N3.1C0/pTrc). A single colony of E. coli TB1 having the expression vector pTrc99A carrying each clone was inoculated into LB medium (6 ml) containing an antibiotic, ampicillin (final concentration 100 μg/mL), and pre-cultured at 30° C. to about A600=0.5, followed by addition of IPTG (isopropyl-β-D(−)-thiogalactopyranoside, Wako Pure Chemical Industries, Ltd., Japan) at a final concentration of 1 mM. After culturing with shaking at 30° C. for an additional 4 hours, the cells in 4 ml culture solution were collected by centrifugation. These cells were suspended in 200 μl of 20 mM Bis-Tris buffer (pH 7.0) containing 0.336% Triton® X-100 and 0.5 M sodium chloride, and ultrasonically homogenized under ice cooling. The resulting homogenate was defined as a crude enzyme solution, diluted 200-fold with 20 mM cacodylate buffer (pH 5.0) containing 0.336% Triton® X-100, and then provided for activity measurement. The reaction was carried out in duplicate. The reaction conditions are as indicated in the footnotes of Tables 1-1 and 1-2.
# as §2
# Reaction time: 2 minutes Reaction temperature: 30° C.
# [3] = after MONO Q (purified fraction)
molecule,measurement,setting,value
B1,Specific activity (U/mg),[1]; Crude enzyme solution,2.0 U/mg
same,Total activity (U),[1]; Crude enzyme solution,4911 U
same,Specific activity (U/mg),[1]; after Hydroxyapatite,151 U/mg
same,Total activity (U),[1]; after Hydroxyapatite,997 U
same,Specific activity (U/mg),[1]; [3],264 U/mg
same,Total activity (U),[1]; [3],808 U
same,Specific activity (U/mg),[1]; after Q SEPHAROSE,26.5 U/mg
same,Total activity (U),[1]; after Q SEPHAROSE,3614 U
same,"fold higher specific activity than Pasteurella multocida-derived β-galactoside-α2,3-sialyltransferase (60 U/mg)",[1]; purified fraction,about 4.4 fold
same,"fold higher specific activity than β-galactoside-α2,6-sialyltransferase derived from Photobacterium damselae strain JT0160 (5.5 U/mg)",[1]; purified fraction,about 48 fold
same,sialyltransferase activity of the expressed clone (in words),[2],smallest clone that retained the activity
same,sialyltransferase activity of the expressed clone (in words),[2]; listed as ISH224-N3C0/pTrc,expressed sialyltransferase; also recorded: retained the activity
